This note sets out measurements from patent publication US20240059799A1 (Pfizer, published 2024).

One may read the Kd as a measure of binding affinity in units of concentration. As a reminder, the koff is the rate constant with which the complex falls apart. The term kon denotes a measure of how fast the partners come together.

Assay [1] addresses T1, bovine serum albumin (bovine, UniProt P02769 25-607).
T1 construct: also called BSA
The assay can be described thus: direct binding ELISA on plate-coated BSA (1 ug/mL), anti-human IgG-Fc HRP, OD450. The method, then:
(§1) For the direct binding ELISA method to HSA or BSA, 96-well high binding plates (Corning, product number 3590) were coated with 1 μg/mL recombinant HSA or BSA in 100 μL/well in PBS overnight at 4° C. Plates were then blocked in PBS+0.02% casein solution and washed with PBS+0.05% Tween-20 following standard ELISA protocol. […] Plates were washed with PBS+0.05% Tween-20 following standard ELISA protocol, and goat anti-human IgG-Fc HRP conjugated secondary antibody (Pierce, #31413) diluted to 1:10,000 in assay buffer was added to plates and incubated for 1 hour at room temperature. Next, the plates were washed with PBS+0.05% Tween-20 following standard ELISA protocol, and then TMB substrate (BioFX Laboratories, catalog number TMBW-0100-01) was added to plates.
(§2) Reactions were stopped after approximately 5 minutes by adding 0.18 M ortho-phosphoric acid to each well and absorbance was read at 450 nm. […] For this method, samples diluted to 0.3 mg/mL were dispensed into the sample tray of a MicroCal VP-Capillary DSC with Autosampler (Malvern Instruments, Inc.), equilibrated for 5 minutes at 10° C. and then scanned up to 110° C. at a rate of 100° C. per/hour. A filtering period of 16 seconds was selected. Raw data was baseline corrected and the protein concentration was normalized. Origin Software 7.0 (Origin Lab Corporation, Northampton, MA) was used to fit the data to an MN2-State Model with an appropriate number of transitions.
(An ELISA detects its analyte on a solid surface through an enzyme-linked reagent.)

The target of assay [2] is T2, human serum albumin (human, UniProt P02768 25-609).
T2 construct: also called HSA
In words: direct binding ELISA on plate-coated HSA (1 ug/mL), anti-human IgG-Fc HRP, OD450. On the procedure:
as §1, §2

For assay [3], the target named is T3, recombinant human TL1A (human, UniProt O95150 71-251).
T3 chain: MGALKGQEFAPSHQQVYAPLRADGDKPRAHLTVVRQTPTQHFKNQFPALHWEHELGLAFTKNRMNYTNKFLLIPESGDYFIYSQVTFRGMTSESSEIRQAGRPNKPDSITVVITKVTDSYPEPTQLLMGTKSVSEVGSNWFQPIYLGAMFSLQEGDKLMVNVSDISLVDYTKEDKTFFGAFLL
In words: cell-based or functional assay.

Assay [4] has as its target T3, recombinant human TL1A. The assay can be described thus: SPR, recombinant human TL1A. (In general: Surface plasmon resonance follows binding to a sensor surface in real time, without labels.)

T1 sequence (P02769 25-607 limits assumed): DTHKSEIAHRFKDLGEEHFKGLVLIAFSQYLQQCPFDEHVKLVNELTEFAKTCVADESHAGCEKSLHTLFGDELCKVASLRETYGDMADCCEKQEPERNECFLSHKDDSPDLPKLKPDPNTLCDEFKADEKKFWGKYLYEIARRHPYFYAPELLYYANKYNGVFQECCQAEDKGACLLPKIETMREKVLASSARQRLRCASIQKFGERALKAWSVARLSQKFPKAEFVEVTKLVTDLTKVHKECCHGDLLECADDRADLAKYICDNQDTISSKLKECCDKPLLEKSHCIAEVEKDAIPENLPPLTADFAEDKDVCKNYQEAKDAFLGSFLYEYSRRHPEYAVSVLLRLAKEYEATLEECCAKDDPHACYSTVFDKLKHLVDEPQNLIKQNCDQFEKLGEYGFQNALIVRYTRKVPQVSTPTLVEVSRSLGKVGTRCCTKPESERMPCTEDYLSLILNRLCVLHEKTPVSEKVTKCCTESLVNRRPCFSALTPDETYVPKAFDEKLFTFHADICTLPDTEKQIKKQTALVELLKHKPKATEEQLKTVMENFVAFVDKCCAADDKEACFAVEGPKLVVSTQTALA

B1: TL1A-0368 (bispecific antibody)
heavy 1: QVQLVQSGAEVKKPGASVKVSCKASGYDYTYYGISWVRQAPGQGLEWMGWISTYNTGTHYAPSLQGRVTMTTDTSTSTAYMELRSLRSDDTAVYYCARESYYGSGAFRGGMDVWGQGTTVTVSSASTKGPSVFPLAPSSKSTSGGTAALGCLVKDYFPEPVTVSWNSGALTSGVHTFPAVLQSSGLYSLSSVVTVPSSSLGTQTYICNVNHKPSNTKVDKKVEPKSCDKTHTCPPCPAPEAAGAPSVFLFPPKPKDTLMISRTPEVTCVVVDVSHEDPEVKFNWYVDGVEVHNAKTKPREEQYNSTYRVVSVLTVLHQDWLNGKEYKCKVSNKALPAPIEKTISKAKGQPREPQVCTLPPSREEMTKNQVSLWCLVKGFYPSDIAVEWESNGQPENNYKTTPPVLDSDGSFFLYSKLTVDKSRWQQGNVFSCSVLHEALHSHYTQKSLSLSPGK
heavy 2: QVQLVQSGAEVKKPGASVKVSCKASGYTFTSYGISWVRQAPGQGLEWMGWISAYNGNTNYAQKLQGRVTMTTDTSTSTAYMELRSLRSDDTAVYYCARESYYGSEAFRAGMDVWGQGTTVTVSS
light: not shown
notes: not shown: human IgG1 constant region with effector-minimizing, KiH and LS mutations
With B1, the binding result in assay [1] is recorded as “no binding (tested: 1e-6 M)”. Further, in assay [2], the binding result is “no binding (tested: 1e-6 M)”. The “NFκB Bioassay IC50” value in assay [3] is 1.56 nM. Besides, in assay [4], the Kd was determined as 0.242 nM, the koff stood at 4.61e-05 s⁻¹ and the on-rate constant (kon) was 191000 M⁻¹ s⁻¹.

B2: TL1A-0371 (bispecific antibody)
heavy 1: QVQLVQSGAEVKKPGASVKVSCKASGYDYTYYGISWVRQAPGQGLEWMGWISTYNTGTHYAPSLQGRVTMTTDTSTSTAYMELRSLRSDDTAVYYCARESYYGSGAFRGGMDVWGQGTTVTVSSASTKGPSVFPLAPSSKSTSGGTAALGCLVKDYFPEPVTVSWNSGALTSGVHTFPAVLQSSGLYSLSSVVTVPSSSLGTQTYICNVNHKPSNTKVDKKVEPKSCDKTHTCPPCPAPEAAGAPSVFLFPPKPKDTLMISRTPEVTCVVVDVSHEDPEVKFNWYVDGVEVHNAKTKPREEQYNSTYRVVSVLTVLHQDWLNGKEYKCKVSNKALPAPIEKTISKAKGQPREPQVCTLPPSREEMTKNQVSLWCLVKGFYPSDIAVEWESNGQPENNYKTTPPVLDSDGSFFLYSKLTVDKSRWQQGNVFSCSVLHEALHSHYTQKSLSLSPGK
heavy 2: not shown
light: not shown
notes: also called TL1A-0371 MBsAb; not shown: human IgG1 constant region with effector-minimizing, KiH and LS mutations
For the molecule B2, the binding result in assay [1] is “no binding (tested: 1e-6 M)”. The binding result in assay [2] is “no binding (tested: 1e-6 M)”. Besides, the “NFκB Bioassay IC50” value in assay [3] is 1.37 nM. For the same molecule, in assay [4], the Kd turned out to be 0.261 nM, the dissociation rate constant (koff) is 4.36e-05 s⁻¹ and the kon is 168000 M⁻¹ s⁻¹.

B3: TL1A-0370 (bispecific antibody)
heavy 1: QVQLVQSGAEVKKPGASVKVSCKASGYDYTYYGISWVRQAPGQGLEWMGWISTYNTGTHYAPSLQGRVTMTTDTSTSTAYMELRSLRSDDTAVYYCARESYYGSGAFRGGMDVWGQGTTVTVSSASTKGPSVFPLAPSSKSTSGGTAALGCLVKDYFPEPVTVSWNSGALTSGVHTFPAVLQSSGLYSLSSVVTVPSSSLGTQTYICNVNHKPSNTKVDKKVEPKSCDKTHTCPPCPAPEAAGAPSVFLFPPKPKDTLMISRTPEVTCVVVDVSHEDPEVKFNWYVDGVEVHNAKTKPREEQYNSTYRVVSVLTVLHQDWLNGKEYKCKVSNKALPAPIEKTISKAKGQPREPQVCTLPPSREEMTKNQVSLWCLVKGFYPSDIAVEWESNGQPENNYKTTPPVLDSDGSFFLYSKLTVDKSRWQQGNVFSCSVLHEALHSHYTQKSLSLSPGK
heavy 2: QVQLVQSGAEVKKPGASVKVSCKASGYTFTSYGISWVRQAPGQGLEWMGWISAYNGNTNYAQKLQGRVTMTTDTSTSTAYMELRSLRSDDTAVYYCARESSYGSEAFRAGMDVWGQGTTVTVSS
light: not shown
notes: also called TL1A-0370 MBsAb; not shown: human IgG1 constant region with effector-minimizing, KiH and LS mutations
Turning to B3, the binding result in assay [1] is “no binding (tested: 1e-6 M)”. For the same molecule, the binding result in assay [2] is given as “no binding (tested: 1e-6 M)”. The “NFκB Bioassay IC50” value in assay [3] amounted to 1.46 nM. In addition, in assay [4], the dissociation constant Kd came out at 0.303 nM, the dissociation rate constant (koff) was 5.73e-05 s⁻¹ and the kon was found to be 190000 M⁻¹ s⁻¹.
